Reference: IntAct's records for PubMed 23219551

B1: DNA ligase 4 (Homo sapiens), P49917 (parent)
chain: MAASQTSQTVASHVPFADLCSTLERIQKSKGRAEKIRHFREFLDSWRKFHDALHKNHKDVTDSFYPAMRLILPQLERERMAYGIKETMLAKLYIELLNLPRDGKDALKLLNYRTPTGTHGDAGDFAMIAYFVLKPRCLQKGSLTIQQVNDLLDSIASNNSAKRKDLIKKSLLQLITQSSALEQKWLIRMIIKDLKLGVSQQTIFSVFHNDAAELHNVTTDLEKVCRQLHDPSVGLSDISITLFSAFKPMLAAIADIEHIEKDMKHQSFYIETKLDGERMQMHKDGDVYKYFSRNGYNYTDQFGASPTEGSLTPFIHNAFKADIQICILDGEMMAYNPNTQTFMQKGTKFDIKRMVEDSDLQTCYCVFDVLMVNNKKLGHETLRKRYEILSSIFTPIPGRIEIVQKTQAHTKNEVIDALNEAIDKREEGIMVKQPLSIYKPDKRGEGWLKIKPEYVSGLMDELDILIVGGYWGKGSRGGMMSHFLCAVAEKPPPGEKPSVFHTLSRVGSGCTMKELYDLGLKLAKYWKPFHRKAPPSSILCGTEKPEVYIEPCNSVIVQIKAAEIVPSDMYKTGCTLRFPRIEKIRDDKEWHECMTLDDLEQLRGKASGKLASKHLYIGGDDEPQEKKRKAAPKMKKVIGIIEHLKAPNLTNVNKISNIFEDVEFCVMSGTDSQPKPDLENRIAEFGGYIVQNPGPDTYCVIAGSENIRVKNIILSNKHDVVKPAWLLECFKTKSFVPWQPRFMIHMCPSTKEHFAREYDCYGDSYFIDTDLNQLKEVFSGIKNSNEQTPEEMASLIADLEYRYSWDCSPLSMFRRHTVYLDSYAVINDLSTKNEGTRLAIKALELRFHGAKVVSCLAEGVSHVIIGEDHSRVADFKAFRRTFKRKFKILKESWVTDSIDKCELQEENQYLI

Variants of: B1
Conditions: with dcr1c_human DCLRE1C

Row | Variant | effect of a mutation on the interaction
1 | F49A | disrupting interaction strength
2 | F42A;F49A | disrupting interaction strength
3 | F42A | disrupting interaction strength

Other lines, results leading:

Row | effect of a mutation on the interaction | Variant
4 | decreasing interaction strength | D18H
5 | decreasing interaction strength | V14A
